Assay results taken from the supplement of paper PMC9112550, “Optimization of the antimicrobial peptide Bac7 by deep mutational scanning” (BMC Biology, 2022).

test system: Escherichia coli TOP10; assay: shrunken log2 fold change of peptide-encoding DNA abundance (4.5 h post-induction vs induction); higher = less antimicrobial activity (less host growth inhibition); conditions: time post-induction: 4.5 h; library: site-saturation at positions 5, 18, 19, 20
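Also: peptides expressed intracellularly from a pBAD plasmid library in pooled LB shake-flask culture, induced with 0.3% L-arabinose, DNA abundance read by NGS, three biological replicates, DESeq2 with apeglm shrinkage.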

Sequence	shrunken log2 fold change
RRIRFRPPRLPRPRPRPPPRPRP	1.84
RRIRFRPPRLPRPRPRPPQIPRP	0.241
RRIRFRPPRLPRPRPRPPQLPRP	0.274
RRIRFRPPRLPRPRPRPPQSPRP	0.334
RRIRFRPPRLPRPRPRPPREPRP	0.43
RRIRFRPPRLPRPRPRPPSWPRP	0.4
RRIRFRPPRLPRPRPRPPTAPRP	0.429
RRIRFRPPRLPRPRPRPPVAPRP	0.987
RRIRFRPPRLPRPRPRPPWTPRP	0.123
RRIRFRPPRLPRPRPRPPYHPRP	-0.454
RRIRFRPPRLPRPRPRPQDVPRP	-0.193
RRIRFRPPRLPRPRPRPQEIPRP	-0.0426
RRIRFRPPRLPRPRPRPQFFPRP	-0.193
RRIRFRPPRLPRPRPRPQGNPRP	0.311
RRIRFRPPRLPRPRPRPQHCPRP	-0.461
RRIRFRPPRLPRPRPRPQIKPRP	-0.291
RRIRFRPPRLPRPRPRPQIWPRP	-0.0457
RRIRFRPPRLPRPRPRPQKAPRP	0.0467
RRIRFRPPRLPRPRPRPQLVPRP	-0.117
RRIRFRPPRLPRPRPRPQMNPRP	-0.709
RRIRFRPPRLPRPRPRPQNPPRP	-0.231
RRIRFRPPRLPRPRPRPQNRPRP	-0.536
RRIRFRPPRLPRPRPRPQNTPRP	-0.512
RRIRFRPPRLPRPRPRPQPGPRP	0.152
RRIRFRPPRLPRPRPRPQPNPRP	-0.0249

Sequence	shrunken log2 fold change
RRIRFRPPRLPRPRPRPQQEPRP	-0.0424
RRIRFRPPRLPRPRPRPQQQPRP	0.0282
RRIRFRPPRLPRPRPRPQSCPRP	-0.0102
RRIRFRPPRLPRPRPRPQTPPRP	0.626
RRIRFRPPRLPRPRPRPQTYPRP	-0.69
RRIRFRPPRLPRPRPRPQVEPRP	-0.0419
RRIRFRPPRLPRPRPRPQYVPRP	-0.368
RRIRFRPPRLPRPRPRPRACPRP	0.165
RRIRFRPPRLPRPRPRPRAKPRP	0.189
RRIRFRPPRLPRPRPRPRCAPRP	0.178
RRIRFRPPRLPRPRPRPRCDPRP	0.0576
RRIRFRPPRLPRPRPRPRCGPRP	0.114
RRIRFRPPRLPRPRPRPRDYPRP	-0.2
RRIRFRPPRLPRPRPRPRHCPRP	-0.239
RRIRFRPPRLPRPRPRPRIYPRP	-0.326
RRIRFRPPRLPRPRPRPRKLPRP	0.134
RRIRFRPPRLPRPRPRPRKVPRP	0.352
RRIRFRPPRLPRPRPRPRLTPRP	-0.212
RRIRFRPPRLPRPRPRPRMQPRP	0.206
RRIRFRPPRLPRPRPRPRMRPRP	0.608
RRIRFRPPRLPRPRPRPRWLPRP	0.269
RRIRFRPPRLPRPRPRPSAPPRP	-0.0675
RRIRFRPPRLPRPRPRPSAYPRP	-0.791
RRIRFRPPRLPRPRPRPSCVPRP	-0.443
RRIRFRPPRLPRPRPRPSDMPRP	-0.11

Sequence	shrunken log2 fold change
RRIRFRPPRLPRPRPRPSEAPRP	-0.0845
RRIRFRPPRLPRPRPRPSEFPRP	-0.301
RRIRFRPPRLPRPRPRPSEYPRP	-0.288
RRIRFRPPRLPRPRPRPSFNPRP	-0.792
RRIRFRPPRLPRPRPRPSFRPRP	-0.433
RRIRFRPPRLPRPRPRPSGHPRP	-0.212
RRIRFRPPRLPRPRPRPSGNPRP	-0.24
RRIRFRPPRLPRPRPRPSGQPRP	-0.204
RRIRFRPPRLPRPRPRPSHEPRP	0.204
RRIRFRPPRLPRPRPRPSHFPRP	-0.136
RRIRFRPPRLPRPRPRPSIEPRP	-0.342
RRIRFRPPRLPRPRPRPSKFPRP	-0.434
RRIRFRPPRLPRPRPRPSKMPRP	-0.351
RRIRFRPPRLPRPRPRPSKNPRP	-0.519
RRIRFRPPRLPRPRPRPSLLPRP	-0.311
RRIRFRPPRLPRPRPRPSMQPRP	-0.209
RRIRFRPPRLPRPRPRPSMVPRP	-0.509
RRIRFRPPRLPRPRPRPSNEPRP	-0.378
RRIRFRPPRLPRPRPRPSNHPRP	-0.681
RRIRFRPPRLPRPRPRPSNIPRP	-0.864
RRIRFRPPRLPRPRPRPSNYPRP	-0.396
RRIRFRPPRLPRPRPRPSQEPRP	-0.286
RRIRFRPPRLPRPRPRPSSRPRP	-0.273
RRIRFRPPRLPRPRPRPSVQPRP	-0.241
RRIRFRPPRLPRPRPRPSVVPRP	-0.786

Sequence	shrunken log2 fold change
RRIRFRPPRLPRPRPRPSWNPRP	-0.575
RRIRFRPPRLPRPRPRPTAQPRP	-0.00528
RRIRFRPPRLPRPRPRPTCPPRP	0.174
RRIRFRPPRLPRPRPRPTFVPRP	-0.051
RRIRFRPPRLPRPRPRPTHNPRP	-0.18
RRIRFRPPRLPRPRPRPTKCPRP	0.0225
RRIRFRPPRLPRPRPRPTKHPRP	0.101
RRIRFRPPRLPRPRPRPTKYPRP	-0.635
RRIRFRPPRLPRPRPRPTMCPRP	-0.274
RRIRFRPPRLPRPRPRPTMNPRP	-0.511
RRIRFRPPRLPRPRPRPTMQPRP	0.219
RRIRFRPPRLPRPRPRPTMSPRP	-0.236
RRIRFRPPRLPRPRPRPTQSPRP	0.691
RRIRFRPPRLPRPRPRPTRHPRP	0.519
RRIRFRPPRLPRPRPRPTSNPRP	-0.617
RRIRFRPPRLPRPRPRPTSQPRP	-0.0191
RRIRFRPPRLPRPRPRPTSSPRP	-0.0359
RRIRFRPPRLPRPRPRPTSYPRP	-0.43
RRIRFRPPRLPRPRPRPTVIPRP	-0.371
RRIRFRPPRLPRPRPRPTWCPRP	-0.0549
RRIRFRPPRLPRPRPRPTYHPRP	-0.428
RRIRFRPPRLPRPRPRPTYIPRP	-0.434
RRIRFRPPRLPRPRPRPTYQPRP	-0.393
RRIRFRPPRLPRPRPRPVAMPRP	-0.0306
RRIRFRPPRLPRPRPRPVCRPRP	-0.0676

Sequence	shrunken log2 fold change
RRIRFRPPRLPRPRPRPVCSPRP	-0.279
RRIRFRPPRLPRPRPRPVCYPRP	-0.495
RRIRFRPPRLPRPRPRPVDFPRP	-0.452
RRIRFRPPRLPRPRPRPVDPPRP	-0.228
RRIRFRPPRLPRPRPRPVENPRP	-0.109
RRIRFRPPRLPRPRPRPVFAPRP	0.158
RRIRFRPPRLPRPRPRPVHQPRP	0.124
RRIRFRPPRLPRPRPRPVIWPRP	-0.0895
RRIRFRPPRLPRPRPRPVKKPRP	0.166
RRIRFRPPRLPRPRPRPVKTPRP	0.0856
RRIRFRPPRLPRPRPRPVLVPRP	-0.288
RRIRFRPPRLPRPRPRPVMQPRP	-0.0242
RRIRFRPPRLPRPRPRPVNEPRP	-0.288
RRIRFRPPRLPRPRPRPVNYPRP	0.184
RRIRFRPPRLPRPRPRPVRCPRP	0.308
RRIRFRPPRLPRPRPRPVSCPRP	-0.514
RRIRFRPPRLPRPRPRPVSIPRP	0.0109
RRIRFRPPRLPRPRPRPVWQPRP	0.0042
RRIRFRPPRLPRPRPRPWCHPRP	0.524
RRIRFRPPRLPRPRPRPWCNPRP	-0.267
RRIRFRPPRLPRPRPRPWDNPRP	-0.298
RRIRFRPPRLPRPRPRPWDPPRP	-0.78
RRIRFRPPRLPRPRPRPWEYPRP	0.0231
RRIRFRPPRLPRPRPRPWFMPRP	-0.609
RRIRFRPPRLPRPRPRPWGKPRP	-0.221

Sequence	shrunken log2 fold change
RRIRFRPPRLPRPRPRPWHGPRP	-0.151
RRIRFRPPRLPRPRPRPWHHPRP	-0.325
RRIRFRPPRLPRPRPRPWHRPRP	2.08
RRIRFRPPRLPRPRPRPWHYPRP	-0.146
RRIRFRPPRLPRPRPRPWIFPRP	-0.00568
RRIRFRPPRLPRPRPRPWKWPRP	-0.0196
RRIRFRPPRLPRPRPRPWMEPRP	-0.706
RRIRFRPPRLPRPRPRPWNAPRP	-0.84
RRIRFRPPRLPRPRPRPWNEPRP	-0.173
RRIRFRPPRLPRPRPRPWPHPRP	-0.132
RRIRFRPPRLPRPRPRPWQAPRP	0.0155
RRIRFRPPRLPRPRPRPWQFPRP	-0.333
RRIRFRPPRLPRPRPRPWQMPRP	0.053
RRIRFRPPRLPRPRPRPWQTPRP	-0.0222
RRIRFRPPRLPRPRPRPWREPRP	-0.149
RRIRFRPPRLPRPRPRPWRHPRP	0.0222
RRIRFRPPRLPRPRPRPWTRPRP	-0.0481
RRIRFRPPRLPRPRPRPWTYPRP	-0.0132
RRIRFRPPRLPRPRPRPWVAPRP	-0.139
RRIRFRPPRLPRPRPRPWVKPRP	-0.00968
RRIRFRPPRLPRPRPRPWYFPRP	-0.303
RRIRFRPPRLPRPRPRPWYKPRP	-0.145
RRIRFRPPRLPRPRPRPWYWPRP	-0.34
RRIRFRPPRLPRPRPRPYARPRP	0.0368
RRIRFRPPRLPRPRPRPYCFPRP	-0.615
